Drawing on paper PMC8506132, “Structural and Kinetic Insights Into the Molecular Basis of Salt Tolerance of the Short-Chain Glucose-6-Phosphate Dehydrogenase From Haloferax volcanii” (Frontiers in Microbiology, 2021), this text covers Km and kcat for one protein.

Substrate in this data set: NC(=O)c1ccc[n+]([C@@H]2O[C@H](COP(=O)(O)OP(=O)(O)OC[C@H]3O[C@@H](n4cnc5c(N)ncnc54)[C@H](O)[C@@H]3O)[C@@H](O)[C@H]2O)c1
Description: purified protein. Type of data set: biochemical, Haloferax volcanii. As to conditions: 2.0 M KCl, G6P co-substrate, pH 7.5, 25 °C, varied: cofactor.

B1: HvG6PDH (Haloferax volcanii DS2) (protein)
chain: MDQPVLLTGAGGRVGQAILGHIGDAYDWRLLDREPLSDEKIPDSVDSTEVYVADVTDETAVRNAMDGVHAVIHLAGDPRPEAPWDSVLRNNIDGTQQMFDAAVDVGVEKFAFASSNHAVGAYETTDRTPDMYRPHHEFRLDGTELPRPSNLYGVSKAAGETLGRYYHDHHDISVVNVRIGNLTQHHPPKEYERGQAMWLSYRDCGHLFECCIEADYDYEIVYGISDNDRKYYSIDRARAVLGYDPQDNSAEFTFEGEPLDEA
notes: modelled as dimer
Consider B1, for which the Michaelis constant (Km) – broadly, the substrate concentration at which the rate is half of its maximum – was found to be 280 ± 68 µM; the kcat (as a rule, the number of substrate molecules converted per active site and unit of time at saturation) stood at 48.5 ± 4.3 s⁻¹.
